US6509447B1, “G protein chimeras and methods of screening compounds” (Glaxo Welcome Inc., priority 1997, dated 2003)

How the values were obtained:
serotonin 5HT1A receptor = target: T1, serotonin 5HT1A receptor (Homo sapiens, UniProt P08908); assay: CPRG assay, MMY9 cells expressing 5-HT1A receptor plus Gα subunit; assay type: cell-based; parameters: key to coupling class where no EC50 could be fitted: weak activation insufficient to carry out curve-fitting was detected; NC: no coupling was detected
T1 construct: expressed in transfected cells; host or cells: Saccharomyces cerevisiae strains MMY9 and MMY11, plasmid pDT-PGK-5-HT1A
T1 sequence (P08908 1-422): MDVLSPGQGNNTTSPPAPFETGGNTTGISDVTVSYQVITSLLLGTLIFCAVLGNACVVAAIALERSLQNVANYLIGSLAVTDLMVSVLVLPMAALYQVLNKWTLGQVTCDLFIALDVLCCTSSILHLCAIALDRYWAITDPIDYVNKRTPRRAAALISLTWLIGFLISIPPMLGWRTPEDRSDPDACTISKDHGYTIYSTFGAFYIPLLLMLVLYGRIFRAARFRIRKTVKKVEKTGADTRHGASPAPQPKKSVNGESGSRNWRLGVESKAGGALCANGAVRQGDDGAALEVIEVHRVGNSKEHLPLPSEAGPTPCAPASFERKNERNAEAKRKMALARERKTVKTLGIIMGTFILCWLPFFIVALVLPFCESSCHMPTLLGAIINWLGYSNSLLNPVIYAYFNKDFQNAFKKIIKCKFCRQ
Method: (§1) Assay for combined FUS1-lacZ and FUS1-HIS3 Expression. In vivo assays of reporter gene induction (CPRG assays) were carried out by suspending cells to 0.02 OD600 in 200 μl SC-glucose (2%) lacking tryptophan, uracil and histidine. This medium was supplemented with agonists, and additionally 10 mM 3-aminotriazole and the β-galactosidase (lacZ) substrate chlorophenolred-β-D-galactopyranoside (CPRG; Boehringer) to a concentration of 0.1 mg/ml. To visualise the colour change reaction, the medium was buffered to pH 7 with 0.1 M sodium phosphate. The assay was conducted in a 96-well microtitre plate format. Plates were incubated for 24 hours without agitation, and absorbance at 570 nm was determined using a Victor microtitre plate reader (Wallac). EC50 values (+/−standard error) were estimated by curve-fitting, using the Robosage software package.
(§2) This experiment illustrates that, for certain receptors, the efficiency of coupling to the yeast pheromone response pathway can be enhanced by creating chimeras between yeast and mammalian Gα subunits. […] Agonist-dependent activation of FUS1-lacZ was determined by incubating cells in medium supplemented with the chromogenic, cell-permeant β-galacosidase (lacZ) substrate, chlorophenolred-β-D-galactopyranoside (CPRG; Boehringer Mannheim). […]

[1] = system: purinergic nucleotide P2Y2 receptor; assay: CPRG assay, MMY9 cells expressing P2Y2 receptor plus Gα subunit; assay type: cell-based, human; parameters: key: weak activation insufficient to carry out curve-fitting was detected; NC: no coupling was detected
Sequence of purinergic nucleotide P2Y2 receptor (P41231 1-347 limits assumed): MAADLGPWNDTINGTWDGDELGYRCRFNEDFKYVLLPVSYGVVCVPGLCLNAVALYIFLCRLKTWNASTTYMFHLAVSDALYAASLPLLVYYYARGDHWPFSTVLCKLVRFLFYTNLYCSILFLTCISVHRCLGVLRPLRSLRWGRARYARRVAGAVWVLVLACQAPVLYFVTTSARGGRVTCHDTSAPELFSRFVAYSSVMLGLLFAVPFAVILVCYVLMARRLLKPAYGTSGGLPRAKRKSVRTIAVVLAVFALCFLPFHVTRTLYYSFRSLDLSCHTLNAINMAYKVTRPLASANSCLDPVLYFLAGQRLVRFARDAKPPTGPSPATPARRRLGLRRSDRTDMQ
Method: as §1, §2

B1: Gpa1p: endogenous yeast Gα subunit, product of the GPA1 gene (protein, UniProt P08539 2-472, looked up)
Guanine nucleotide-binding …: GCTVSTQTIGDESDPFLQNKRANDVIEQSLQLEKQRDKNEIKLLLLGAGESGKSTVLKQLKLLHQGGFSHQERLQYAQVIWADAIQSMKILIIQARKLGIQLDCDDPINNKDLFACKRILLKAKALDYINASVAGGSDFLNDYVLKYSERYETRRRVQSTGRAKAAFDEDGNISNVKSDTDRDAETVTQNEDADRNNSSRINLQDICKDLNQEGDDQMFVRKTSREIQGQNRRNLIHEDIAKAIKQLWNNDKGIKQCFARSNEFQLEGSAAYYFDNIEKFASPNYVCTDEDILKGRIKTTGITETEFNIGSSKFKVLDAGGQRSERKKWIHCFEGITAVLFVLAMSEYDQMLFEDERVNRMHESIMLFDTLLNSKWFKDTPFILFLNKIDLFEEKVKSMPIRKYFPDYQGRVGDAEAGLKYFEKIFLSLNKTNKPIYVKRTCATDTQTMKFVLSAVTDLIIQQNLKKIGII
B1 was tested, and the “agonist-dependent induction of FUS1-LacZ / coupling, in words” value (serotonin 5HT1A receptor) was “failed to signal”, the “coupling class where no EC50 could be fitted” value (serotonin 5HT1A receptor) was “NC” and the “coupling class where no EC50 could be fitted” value [1] was “weak”.
